The values below come from patent publication US20030165986A1 (IMMUNEX, published 2003).

This assay concerns the target T1, TACI ligand (TACI-L), expressed on transfected cells (Homo sapiens (Human), UniProt Q9Y275 1-285).
T1 construct: cDNA of TACI-L transfected into cells on slides and into CV1 cells (flow cytometry); also called Neutrokine alpha; TL5
The experiment in a line: slide binding assay on cDNA-transfected cells. The method, then: […] by adding 2 μg of the DNA encoding the members of the ligand family to a sterile tube and adding 75 μM choloroquine in transfection/growth medium to a final volume of 175 μl. 25 μl of DEAE-dextran (4 mg/ml in PBS) was then added to the DNA solution and mixed.
The growth medium was aspirated from the slides and replaced with 3 ml of 75 μM chloroquine in the transfectionfgrowth medium, followed by the addition of the DNA/DEAE-dextran mixture to the cells. The slides were rocked side-to-side and back-and-forth to distribute the precipitated DNA evenly. The slides were incubated at 37° C. for 4.5 hours.
To screen for positive pools expressing the cell-bound protein, slides were incubated with TACI:Fc and then with a radioiodinated protein probe (labeled goat anti-human Fc F(ab′)2) for 30 minutes at room temperature. The probe solution is then removed by aspiration and washed to remove the non-specifically bound probe. Finally, the slides were fixed by incubating each slide with 1 ml 2.5% glutaraldehyde in PBS for 30 minutes at room temperature to retain specifically bound label. The slides were then washed twice with 1 ml PBS and air-dried.

T1 sequence (Q9Y275 whole entry): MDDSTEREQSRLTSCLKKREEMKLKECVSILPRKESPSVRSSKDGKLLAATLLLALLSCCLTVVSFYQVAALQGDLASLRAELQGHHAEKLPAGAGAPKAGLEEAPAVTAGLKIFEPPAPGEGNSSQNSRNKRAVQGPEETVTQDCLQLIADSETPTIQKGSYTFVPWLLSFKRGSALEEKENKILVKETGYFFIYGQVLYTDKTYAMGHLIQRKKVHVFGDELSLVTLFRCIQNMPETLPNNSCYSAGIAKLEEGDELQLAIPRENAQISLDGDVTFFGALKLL

B1: TACI-Fc (Fc fusion)
chain: SGLGRSRRGGRSRVDQEERFPQGLWTGVAMRSCPEEQYWDPLLGTCMSCKTICNHQSQRTCAAFCRSLSCRKEQGKFYDHLLRDCISCASICGQHPKQCAYFCENKLRSPVNLPPELRRQRSGEVENNSDNSGRYQGLEHRGSEASPALPGLKLSADQVALVYST
notes: also called HuTACI/Fc; Fc chimera; not shown: Fc portion of human IgG1, fused in-frame at the 3' end
Regarding B1, the binding result is listed as “binds”.
